Targets include hnRNPK KH1 (human/mouse (100% identical), UniProt P61978 37-120); hnRNPK deltaKH3 (human/mouse (100% identical), UniProt P61978 1-337); hnRNPK KH3 (human/mouse (100% identical), UniProt P61978 379-463); hnRNPK R9 to S9 (human/mouse (100% identical), UniProt P61978 1-463, R247S;R256S;R258S;R268S;R287S;R296S;R299S;R316S;R326S).
Experiment in all cases: fluorescence anisotropy
The target in data set [1] is T1, hnRNPK full-length (human/mouse (100% identical), UniProt P61978 1-463).
The target of data set [2] is T1, hnRNPK full-length. This is another data set of the same source.
Data set [3] has as its target T1, hnRNPK full-length. The source holds these as a separate data set.

Like-named read-outs stand apart in the source and are kept apart here.

Usually Kd stands for the constant that tells how readily two partners part at equilibrium. Take GCAGCCCCAGCCCCAGCCCCUACCCCUGCCCCUGCCCCUGC (structured_RNA) [B motif RNA WT]: the binding result in the data set with hnRNPK KH1 is given as “no binding”. The results for the dissociation constant (Kd) in the data set with hnRNPK deltaKH3 and with hnRNPK full-length [1] were 140 ± 30 nM and 61 ± 6 nM, respectively.

As for GCAGCCCCAGCCCCAGCCCCUACCCCUGCCCCUGUUUCUGC (structured_RNA) [(1,2,3,4,5)], in the data set with hnRNPK full-length [2], the binding result is “binds”.

B1: Exon 4 hp (structured_RNA)
RNA: GCUGGCGACCUAUUCCCUUUGACGAUCCCUAGGUGGAGAUGGGGCAUGAGGAUCCUCCAGGGGAAUAGCUCACCACC
As for B1, the binding result in the data set with hnRNPK full-length [1] is “no binding”. As to ATATTCCCTC (ssDNA) [M5' ssDNA], the Kd in the data set with hnRNPK KH3 was found to be 8.7 ± 1.3 µM; in the data set with hnRNPK full-length [1], 1400 ± 200 nM; with hnRNPK R9 to S9 it was 3000 ± 100 nM. With GGUCCCCCGCCUCAUUCGCCCCUCUGCUCCC (ssRNA) [CDK6 3'UTR], the equilibrium dissociation constant (Kd) with hnRNPK deltaKH3 was found to be 710 ± 50 nM; with hnRNPK KH3 it was 12.9 ± 0.7 µM; with hnRNPK full-length [1], 450 ± 60 nM. Regarding GCGCCUCCCGGGUUCAAGCGAUUCUCCUGCCUCAGCCUCCCGA (ssRNA) [Sirloin motif], the Kd with hnRNPK deltaKH3 worked out at 760 ± 40 nM; with hnRNPK full-length [1] it was 690 ± 20 nM. The corresponding values for GGCUCCCCCGACCUCUGUGCUCCCCUCCCCCGACCUCUGUGC (ssRNA) [MYU lncRNA] are 120 ± 10 nM and 70 ± 7 nM. GCAGCCCCAGCCCCAGCCCCUACCCCUGUUUCUGUUUCUGC (structured_RNA) [(1,2,3,4)]: in the data set with hnRNPK full-length [2], the binding result is “binds”.

In the case of GCCAACCUCUUCCCAUUUCCCACACUCCAACUCCCU (ssRNA) [Ucp2], the Kd is 87 ± 9 nM with hnRNPK deltaKH3, 11.1 ± 0.6 µM in the data set with hnRNPK KH3 and 44 ± 3 nM with hnRNPK full-length [1].

GCAGCCCCAGUUUCAGCCCCUAUUUCUGUUUCUGUUUCUGC (structured_RNA) [(1,3)]: in the data set with hnRNPK full-length [3], the binding result is “no binding”. Take GUCAUUUUCUCCCUUUCUGUUUUUCUUC (ssRNA) [Rab7]: the values for the equilibrium dissociation constant (Kd) with hnRNPK deltaKH3 and in the data set with hnRNPK full-length [1] were 360 ± 80 nM and 110 ± 20 nM, respectively. In the case of GCAGUUUCAGCCCCAGCCCCUAUUUCUGUUUCUGUUUCUGC (structured_RNA) [(2,3)], the equilibrium dissociation constant (Kd) with hnRNPK full-length [1] amounted to 710 nM. This counts as sub-micromolar. GCAGCCCCAGCCCCAGCCCCUAUUUCUGUUUCUGUUUCUGC (structured_RNA) [(1,2,3)]: in the data set with hnRNPK full-length [2], the binding result is reported as “binds”. As for GCAGCCCCAGUUUCAGUUUUUAUUUCUGUUUCUGCCCCUGC (structured_RNA) [(1,6)], the binding result with hnRNPK full-length [3] is “no binding”.

The values are drawn from PMC7498318.
